This note sets out measurements from publication PMC10046738, “Detection of Alpha Fetoprotein Based on AIEgen Nanosphere Labeled Aptamer Combined with Sandwich Structure of Magnetic Gold Nanocomposites”.

This data set addresses T1, alpha-fetoprotein (AFP) (UniProt P02771 19-609).
T1 sequence: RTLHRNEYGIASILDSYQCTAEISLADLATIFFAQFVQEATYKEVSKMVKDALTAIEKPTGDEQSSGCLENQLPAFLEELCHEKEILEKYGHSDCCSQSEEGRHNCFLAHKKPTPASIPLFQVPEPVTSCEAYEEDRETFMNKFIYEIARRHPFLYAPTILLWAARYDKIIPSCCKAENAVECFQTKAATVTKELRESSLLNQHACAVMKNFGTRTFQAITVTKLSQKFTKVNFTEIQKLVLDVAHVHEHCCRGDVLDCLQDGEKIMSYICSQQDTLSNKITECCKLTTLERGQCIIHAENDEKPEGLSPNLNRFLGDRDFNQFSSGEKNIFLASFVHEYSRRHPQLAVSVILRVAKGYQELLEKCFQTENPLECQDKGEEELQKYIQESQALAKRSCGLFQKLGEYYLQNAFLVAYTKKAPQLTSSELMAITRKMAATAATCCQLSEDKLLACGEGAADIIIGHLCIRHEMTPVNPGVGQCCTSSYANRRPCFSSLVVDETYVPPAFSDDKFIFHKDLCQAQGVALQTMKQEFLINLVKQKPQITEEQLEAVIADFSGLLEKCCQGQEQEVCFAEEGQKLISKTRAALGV
In words: fluorescence sandwich aptasensor (magnetic capture); capture aptamer on Fe3O4@MPTMS@AuNPs; AFP 0.005-10 ng/mL; LOD 1.429 pg/mL is not a Kd; PBS 10 mM, pH 7.4 (aptamer 1 immobilization); room temperature, 30 min AFP then 30 min aptamer 2; 15 nM aptamer 1, 8 ug/mL AIEgen aptamer 2, 10 ug/mL Fe3O4@MPTMS@AuNPs. The settings on record: label: immobilized on Fe3O4@MPTMS@AuNPs.

B1: Aptamer 1 (AFP aptamer, 3'-SH) (ssDNA)
DNA: GTGACGCTCCTAACGCTGACTCAGGTGCAGTTCTCGACTCGGTCTTGATGTGGGTCCTGTCCGTCCGAACCAATC
modifications: 3'-thiol
Regarding B1, the binding result was “binds”.
